Reference: the supplement of paper PMC10065799, “High-throughput profiling of sequence recognition by tyrosine kinases and SH2 domains using bacterial peptide display” (eLife, 2023)

Legend:
[1] = target: c-Src SH2; test: SH2 binding enrichment of the phosphorylated peptide, bacterial display (enrichment ratio); higher = better substrate or ligand; peptides without Tyr show the background
[2] = target: Grb2 SH2 (UniProt P62993); test: as above
[3] = target: SHP2-C SH2; test: as above
[4] = target: MERTK (UniProt Q12866); test: phosphorylation enrichment, bacterial display (enrichment ratio); higher = better substrate or ligand; peptides without Tyr show the background
[5] = test system: Fer (mouse); test: as above
[6] = target: Fes (UniProt P07332); test: as above
[7] = test system: c-Abl (mouse); test: as above
[8] = test system: c-Src; test: as above
[9] = target: FGFR3 (UniProt P22607); test: as above
Sequence of FGFR3 (P22607 whole entry, looked up): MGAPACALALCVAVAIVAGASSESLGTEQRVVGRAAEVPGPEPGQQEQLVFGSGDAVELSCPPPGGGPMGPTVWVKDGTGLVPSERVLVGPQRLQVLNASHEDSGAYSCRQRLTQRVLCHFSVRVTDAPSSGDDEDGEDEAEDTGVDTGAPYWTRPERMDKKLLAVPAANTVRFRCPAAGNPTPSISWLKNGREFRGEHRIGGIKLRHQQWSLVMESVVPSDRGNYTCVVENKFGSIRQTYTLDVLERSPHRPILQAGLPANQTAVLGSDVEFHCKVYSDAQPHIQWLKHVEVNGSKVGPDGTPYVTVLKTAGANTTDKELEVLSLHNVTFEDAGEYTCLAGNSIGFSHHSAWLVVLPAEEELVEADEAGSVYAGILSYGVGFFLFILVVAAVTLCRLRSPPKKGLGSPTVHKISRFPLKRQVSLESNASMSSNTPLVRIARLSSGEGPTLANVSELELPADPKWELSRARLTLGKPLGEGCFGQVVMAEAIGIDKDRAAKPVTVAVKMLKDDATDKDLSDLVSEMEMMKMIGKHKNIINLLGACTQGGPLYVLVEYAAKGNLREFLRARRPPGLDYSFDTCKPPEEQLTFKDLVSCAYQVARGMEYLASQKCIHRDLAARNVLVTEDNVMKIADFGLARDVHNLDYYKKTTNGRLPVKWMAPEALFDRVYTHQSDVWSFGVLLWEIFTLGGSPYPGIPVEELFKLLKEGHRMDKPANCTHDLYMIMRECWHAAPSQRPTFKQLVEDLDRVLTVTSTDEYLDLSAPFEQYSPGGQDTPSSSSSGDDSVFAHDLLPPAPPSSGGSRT

[10] = target: Hck (UniProt P08631); test: as above
Sequence of Hck (P08631 whole entry, looked up): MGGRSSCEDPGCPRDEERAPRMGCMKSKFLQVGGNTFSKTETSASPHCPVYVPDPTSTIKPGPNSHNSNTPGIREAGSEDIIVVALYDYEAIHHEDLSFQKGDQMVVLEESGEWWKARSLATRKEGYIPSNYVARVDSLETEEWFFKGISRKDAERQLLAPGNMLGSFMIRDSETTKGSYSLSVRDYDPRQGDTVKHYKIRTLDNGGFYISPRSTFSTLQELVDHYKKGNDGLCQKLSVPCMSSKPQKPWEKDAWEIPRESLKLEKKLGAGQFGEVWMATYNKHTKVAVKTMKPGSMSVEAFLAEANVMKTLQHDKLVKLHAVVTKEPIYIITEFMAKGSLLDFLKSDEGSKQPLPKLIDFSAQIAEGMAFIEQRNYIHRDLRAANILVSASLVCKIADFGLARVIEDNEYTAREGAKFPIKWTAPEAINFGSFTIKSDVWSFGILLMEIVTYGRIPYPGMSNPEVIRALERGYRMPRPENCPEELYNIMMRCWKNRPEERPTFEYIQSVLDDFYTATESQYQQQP

[11] = target: Jak2 (UniProt O60674); test: as above
Sequence of Jak2 (O60674 whole entry, looked up): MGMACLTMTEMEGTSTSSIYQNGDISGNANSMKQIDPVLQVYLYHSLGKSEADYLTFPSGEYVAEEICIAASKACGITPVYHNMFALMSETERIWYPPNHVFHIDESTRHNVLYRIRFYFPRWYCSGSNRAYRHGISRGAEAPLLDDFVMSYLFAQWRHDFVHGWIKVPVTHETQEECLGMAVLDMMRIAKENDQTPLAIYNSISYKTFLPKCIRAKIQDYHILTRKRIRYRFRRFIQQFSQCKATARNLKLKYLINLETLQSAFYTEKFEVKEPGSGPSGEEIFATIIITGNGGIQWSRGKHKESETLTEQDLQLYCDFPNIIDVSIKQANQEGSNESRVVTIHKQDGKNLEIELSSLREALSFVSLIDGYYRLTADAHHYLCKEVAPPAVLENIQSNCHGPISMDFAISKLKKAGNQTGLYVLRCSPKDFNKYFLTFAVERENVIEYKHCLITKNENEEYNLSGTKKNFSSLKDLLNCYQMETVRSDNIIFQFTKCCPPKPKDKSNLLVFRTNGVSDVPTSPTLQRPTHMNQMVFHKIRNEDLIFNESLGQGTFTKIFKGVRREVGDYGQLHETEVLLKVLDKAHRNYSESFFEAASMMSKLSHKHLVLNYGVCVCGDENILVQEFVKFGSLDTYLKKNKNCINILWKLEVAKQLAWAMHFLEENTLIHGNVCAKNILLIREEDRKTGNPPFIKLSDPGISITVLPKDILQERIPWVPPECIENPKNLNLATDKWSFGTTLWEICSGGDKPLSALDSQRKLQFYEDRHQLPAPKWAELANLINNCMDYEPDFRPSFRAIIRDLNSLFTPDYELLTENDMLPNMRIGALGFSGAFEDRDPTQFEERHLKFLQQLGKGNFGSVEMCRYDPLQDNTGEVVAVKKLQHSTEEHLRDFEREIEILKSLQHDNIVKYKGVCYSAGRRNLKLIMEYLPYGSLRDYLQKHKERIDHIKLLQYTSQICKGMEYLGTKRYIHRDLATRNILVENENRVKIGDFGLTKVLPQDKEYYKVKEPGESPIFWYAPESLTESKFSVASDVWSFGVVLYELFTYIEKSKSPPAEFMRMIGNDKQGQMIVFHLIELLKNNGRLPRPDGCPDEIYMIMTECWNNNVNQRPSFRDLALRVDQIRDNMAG

[12] = target: EPHB1 (UniProt P54762); test: as above
[13] = target: Fyn (UniProt P06241); test: as above
Sequence of Fyn (P06241 whole entry, looked up): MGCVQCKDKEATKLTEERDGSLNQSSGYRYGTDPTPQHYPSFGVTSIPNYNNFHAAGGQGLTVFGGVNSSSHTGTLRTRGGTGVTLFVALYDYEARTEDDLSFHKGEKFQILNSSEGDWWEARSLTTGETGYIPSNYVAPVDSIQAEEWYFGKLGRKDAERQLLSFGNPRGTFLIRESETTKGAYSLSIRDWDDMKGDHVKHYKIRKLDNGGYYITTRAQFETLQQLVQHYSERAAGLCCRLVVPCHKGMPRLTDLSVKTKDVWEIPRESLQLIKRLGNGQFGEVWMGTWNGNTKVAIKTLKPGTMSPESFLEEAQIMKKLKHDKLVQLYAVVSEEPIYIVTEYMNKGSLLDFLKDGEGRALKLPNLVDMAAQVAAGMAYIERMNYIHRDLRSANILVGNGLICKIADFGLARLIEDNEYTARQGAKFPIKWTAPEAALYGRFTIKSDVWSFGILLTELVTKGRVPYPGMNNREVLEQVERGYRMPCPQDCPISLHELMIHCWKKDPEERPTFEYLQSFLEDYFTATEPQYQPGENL

[14] = test system: AncSZ; test: as above
[15] = target: EPHB2 (UniProt P29323); test: as above
Sequence of EPHB2 (P29323 whole entry, looked up): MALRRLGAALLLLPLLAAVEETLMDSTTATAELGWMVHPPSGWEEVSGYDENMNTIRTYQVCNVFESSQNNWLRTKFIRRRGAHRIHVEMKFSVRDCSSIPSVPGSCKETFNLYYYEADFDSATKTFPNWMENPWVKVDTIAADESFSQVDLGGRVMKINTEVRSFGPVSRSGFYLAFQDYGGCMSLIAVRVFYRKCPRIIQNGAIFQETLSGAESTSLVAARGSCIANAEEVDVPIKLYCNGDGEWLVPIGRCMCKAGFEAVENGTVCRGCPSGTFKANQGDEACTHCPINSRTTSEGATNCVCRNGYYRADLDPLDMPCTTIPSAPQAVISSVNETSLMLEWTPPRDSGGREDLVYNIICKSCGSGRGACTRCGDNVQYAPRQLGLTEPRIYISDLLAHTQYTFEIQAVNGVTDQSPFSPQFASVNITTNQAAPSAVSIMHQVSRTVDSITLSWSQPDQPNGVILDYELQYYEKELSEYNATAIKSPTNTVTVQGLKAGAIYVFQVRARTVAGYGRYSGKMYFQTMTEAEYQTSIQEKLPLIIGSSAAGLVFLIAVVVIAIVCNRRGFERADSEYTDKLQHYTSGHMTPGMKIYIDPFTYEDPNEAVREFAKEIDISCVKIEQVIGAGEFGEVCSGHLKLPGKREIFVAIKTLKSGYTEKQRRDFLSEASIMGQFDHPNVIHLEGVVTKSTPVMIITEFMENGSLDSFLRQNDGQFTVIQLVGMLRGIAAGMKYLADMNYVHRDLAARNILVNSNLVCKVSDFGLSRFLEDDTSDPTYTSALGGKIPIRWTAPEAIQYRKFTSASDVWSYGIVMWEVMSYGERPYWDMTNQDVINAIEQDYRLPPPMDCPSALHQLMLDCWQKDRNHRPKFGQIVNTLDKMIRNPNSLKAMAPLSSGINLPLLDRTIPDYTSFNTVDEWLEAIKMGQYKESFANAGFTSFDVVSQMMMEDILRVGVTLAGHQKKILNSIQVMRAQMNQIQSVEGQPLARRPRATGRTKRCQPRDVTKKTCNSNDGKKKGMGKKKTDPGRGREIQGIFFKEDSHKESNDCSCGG

[16] = target: FGFR1 (UniProt P11362); test: as above
Sequence of FGFR1 (P11362 whole entry, looked up, the tested form may be a part): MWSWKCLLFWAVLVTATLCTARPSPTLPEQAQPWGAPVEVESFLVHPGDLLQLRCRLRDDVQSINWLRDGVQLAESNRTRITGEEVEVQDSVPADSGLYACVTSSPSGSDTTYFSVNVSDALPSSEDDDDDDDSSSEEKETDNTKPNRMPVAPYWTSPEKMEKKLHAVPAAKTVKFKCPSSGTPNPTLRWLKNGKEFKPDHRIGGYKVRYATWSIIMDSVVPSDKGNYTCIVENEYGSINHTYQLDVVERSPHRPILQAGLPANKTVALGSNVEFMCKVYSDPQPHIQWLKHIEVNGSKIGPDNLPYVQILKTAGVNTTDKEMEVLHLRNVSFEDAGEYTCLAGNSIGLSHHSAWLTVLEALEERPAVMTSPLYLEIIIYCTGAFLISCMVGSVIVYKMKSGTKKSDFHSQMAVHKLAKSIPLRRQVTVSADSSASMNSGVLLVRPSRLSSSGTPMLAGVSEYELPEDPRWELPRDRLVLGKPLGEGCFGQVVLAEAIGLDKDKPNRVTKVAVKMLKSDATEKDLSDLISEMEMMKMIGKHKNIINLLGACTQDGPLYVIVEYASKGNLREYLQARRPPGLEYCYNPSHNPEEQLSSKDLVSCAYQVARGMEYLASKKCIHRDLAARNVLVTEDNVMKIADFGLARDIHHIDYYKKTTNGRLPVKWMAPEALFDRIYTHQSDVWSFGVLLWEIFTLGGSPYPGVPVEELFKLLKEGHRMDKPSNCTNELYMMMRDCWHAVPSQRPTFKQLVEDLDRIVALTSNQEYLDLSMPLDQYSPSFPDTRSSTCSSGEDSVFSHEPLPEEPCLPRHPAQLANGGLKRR
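For SH2 binding enrichment of the phosphorylated peptide, bacterial display in this document: peptide library displayed on the E. coli surface as eCPX fusions, selected cells deep-sequenced, score is each peptide's frequency after selection divided by its frequency in the input.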
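For phosphorylation enrichment, bacterial display in this document: 11-residue human phosphosite peptides and single-mutation variants displayed on the E. coli surface, counted by deep sequencing, each peptide's frequency after selection divided by its frequency in the unselected input library; frequency after pTyr selection over input frequency; kinase dosed for 20-30% of maximal phosphorylation in three min.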

SH2 binding enrichment [1] | SH2 binding enrichment [2] | SH2 binding enrichment [3] | Sequence | phosphorylation enrichment [4] | phosphorylation enrichment [5] | phosphorylation enrichment [6] | phosphorylation enrichment [7] | phosphorylation enrichment [8] | phosphorylation enrichment [9] | phosphorylation enrichment [10] | phosphorylation enrichment [11] | phosphorylation enrichment [12] | phosphorylation enrichment [13] | phosphorylation enrichment [14] | phosphorylation enrichment [15] | phosphorylation enrichment [16]
0.723 | 1.18 | 0.927 | FRKNIYNVKST [SYNE2_Y575_YF] | 0.335 | 0.348 | 0.439 | 0.39 | 0.355 | 0.355 | 0.251 | 0.384 | 0.385 | 0.398 | 0.469 | 0.378 | 0.357
1.7 | 0.847 | 1.04 | TQPSPYAVYRF [RPGRIP1_Y823] | 8.69 | 9 | 0.834 | 22.2 | 10.1 | 0.795 | 7.95 | 0.898 | 1.22 | 11.5 | 0.912 | 1.84 | 0.794
0.695 | 1.24 | 1.11 | HRGYLYLAIEY [TEK_Y899] | 0.486 | 0.432 | 1.22 | 1.24 | 0.375 | 0.602 | 0.466 | 1.03 | 0.558 | 0.485 | 1.23 | 0.485 | 0.521
0.97 | 1.12 | 0.956 | NHYKICNLCAE [PTEN_Y68_Y68C] | 0.45 | 0.384 | 0.691 | 0.571 | 0.372 | 0.519 | 0.378 | 0.613 | 0.376 | 0.4 | 0.663 | 0.395 | 0.488
0.699 | 0.966 | 0.795 | QCTSHYPEHVC [SART3_Y541_D540H] | 0.417 | 0.393 | 0.991 | 0.585 | 0.34 | 0.677 | 0.633 | 0.766 | 0.458 | 0.666 | 1.03 | 0.747 | 0.727
0.808 | 0.999 | 0.729 | HEKKAYSFCGT [RPS6KA3_Y226] | 0.725 | 0.989 | 1.8 | 0.725 | 0.65 | 1.68 | 1.49 | 0.695 | 0.703 | 1.09 | 1.73 | 1.18 | 1.51
0.283 | 0.529 | 0.534 | QMQLKYSQSDL [SMC1A_Y714_R711Q] | 0.69 | 0.621 | 1.32 | 0.885 | 0.457 | 0.735 | 0.655 | 0.569 | 0.68 | 0.654 | 0.973 | 0.494 | 0.829
0.474 | 0.698 | 0.601 | GNLQENLTRHV [TGFBR2_Y336_Y336N] | 0.368 | 0.366 | 0.558 | 0.432 | 0.337 | 0.418 | 0.374 | 0.447 | 0.478 | 0.427 | 0.461 | 0.422 | 0.358
1.07 | 0.855 | 0.895 | KKDGPYDVVVL [PARK7_Y67_E64D] | 0.589 | 3.37 | 0.9 | 0.629 | 0.569 | 0.602 | 0.507 | 0.608 | 0.991 | 0.562 | 0.906 | 0.53 | 0.449
0.629 | 0.974 | 0.78 | CNLDTYQKRLR [PLA2G2D_Y126_R121C] | 0.434 | 0.395 | 0.624 | 0.592 | 0.473 | 0.462 | 0.475 | 0.563 | 0.463 | 0.463 | 0.65 | 0.582 | 0.532
0.473 | 0.462 | 0.737 | TEYIQYMRRKN [MAX_Y73] | 0.545 | 0.523 | 0.615 | 0.546 | 0.491 | 0.609 | 0.7 | 0.718 | 0.404 | 0.468 | 0.734 | 0.528 | 0.7
0.571 | 1 | 0.809 | ADPQEYIPLPA [JAKtide_2014] | 0.425 | 0.457 | 0.983 | 0.628 | 0.468 | 0.693 | 0.549 | 0.865 | 0.529 | 0.512 | 0.904 | 0.49 | 0.75
0.376 | 0.845 | 0.607 | GREEFYSTHPH [LRRK2_Y1402] | 1.52 | 0.528 | 0.575 | 0.418 | 0.421 | 0.465 | 0.679 | 0.483 | 0.385 | 0.42 | 0.576 | 0.482 | 0.505
0.439 | 0.715 | 0.563 | SENFTYIWWLN [PSG4_Y271_K267E_YF] | 0.404 | 0.674 | 1.59 | 0.96 | 0.355 | 1.03 | 0.559 | 1.46 | 0.73 | 0.513 | 1.47 | 0.771 | 0.543
0.569 | 0.845 | 0.593 | SRVTQYERNFE [SNX1_Y463_D466N] | 0.379 | 0.438 | 0.813 | 0.634 | 0.377 | 0.499 | 0.435 | 0.662 | 0.421 | 0.45 | 0.763 | 0.387 | 0.453
0.526 | 0.979 | 0.687 | KDIENYIQDGK [RAD50_Y964] | 0.464 | 0.416 | 0.965 | 0.639 | 0.461 | 0.616 | 0.45 | 0.82 | 0.504 | 0.433 | 0.923 | 0.515 | 0.543
1.09 | 0.985 | 0.993 | IVRSLYEDQED [VHL_Y185_L188Q] | 0.482 | 0.523 | 1.36 | 0.826 | 0.59 | 0.742 | 0.581 | 1.3 | 0.67 | 0.477 | 1.39 | 0.621 | 0.67
0.693 | 1.04 | 0.656 | DLLNSYIENEG [HSPA4L_Y600] | 0.375 | 0.545 | 0.999 | 0.585 | 0.343 | 0.875 | 0.484 | 1.17 | 0.573 | 0.53 | 0.996 | 0.561 | 0.528
0.563 | 0.821 | 0.661 | GHEFIYVDPMQ [PDGFRA_Y574_YF] | 2.36 | 1.91 | 0.986 | 6.67 | 2.6 | 7.52 | 2.96 | 0.818 | 5.23 | 2.2 | 1.85 | 6.63 | 10.8

Continued, sequence first:

Sequence | SH2 binding enrichment [1] | SH2 binding enrichment [2] | SH2 binding enrichment [3] | phosphorylation enrichment [4] | phosphorylation enrichment [5] | phosphorylation enrichment [6] | phosphorylation enrichment [7] | phosphorylation enrichment [8] | phosphorylation enrichment [9] | phosphorylation enrichment [10] | phosphorylation enrichment [11] | phosphorylation enrichment [12] | phosphorylation enrichment [13] | phosphorylation enrichment [14] | phosphorylation enrichment [15] | phosphorylation enrichment [16]
PVQAAYQNVVA [HBB_Y131_K133N] | 3.07 | 34.4 | 1.49 | 0.591 | 0.98 | 0.877 | 0.591 | 0.49 | 0.692 | 0.536 | 0.645 | 0.915 | 0.644 | 0.931 | 0.567 | 0.699
SLQSEYVHFGG [CDC14A_Y591_YF] | 0.629 | 0.899 | 0.993 | 0.509 | 0.442 | 0.963 | 0.734 | 0.889 | 0.972 | 0.596 | 0.875 | 1.09 | 0.783 | 1.24 | 0.746 | 1.36
APQFTYTQGGQ [FLNA_Y1763_A1764T_YF] | 0.597 | 0.75 | 0.503 | 0.367 | 0.423 | 0.681 | 0.444 | 0.42 | 0.582 | 0.395 | 0.552 | 0.444 | 0.5 | 0.602 | 0.536 | 0.482
RLKAKYPAATG [GLI3_Y933_A934P] | 1.48 | 1.48 | 1.25 | 0.639 | 0.604 | 0.969 | 1.14 | 0.818 | 0.941 | 0.787 | 0.905 | 0.708 | 0.755 | 0.713 | 0.697 | 0.716
LEQQKYTVTVD [IKBKB_Y199] | 0.567 | 0.804 | 0.616 | 0.71 | 0.674 | 1.98 | 0.634 | 0.593 | 1.06 | 0.726 | 0.954 | 0.566 | 0.706 | 1.21 | 0.746 | 0.647
SVKVYYKKCWF [EPHA7_Y202_S207F] | 0.501 | 0.712 | 0.657 | 0.356 | 0.433 | 1.14 | 0.856 | 0.448 | 0.596 | 0.382 | 1.08 | 0.553 | 0.375 | 1.12 | 0.531 | 0.432
KLQKKYGPIYS [CYP17A1_Y60] | 0.588 | 1.01 | 0.819 | 0.422 | 0.39 | 0.468 | 0.451 | 1.17 | 0.438 | 2.26 | 0.378 | 0.361 | 1.59 | 0.433 | 0.351 | 0.318
TYGVVYKARNK [CDK2_Y19] | 0.548 | 0.788 | 0.253 | 0.41 | 0.46 | 0.691 | 0.272 | 1.33 | 0.515 | 1.47 | 0.485 | 0.369 | 1.81 | 1.18 | 0.563 | 0.354
PVQAADQKVVA [HBB_Y131_Y131D] | 0.388 | 0.731 | 0.733 | 0.593 | 0.482 | 1.18 | 0.781 | 0.605 | 0.816 | 0.576 | 0.893 | 0.508 | 0.62 | 0.918 | 0.718 | 0.654
SEKIVYGHVDD [ACO2_Y71_L74V] | 0.556 | 0.903 | 1.59 | 0.383 | 0.466 | 0.805 | 0.677 | 0.649 | 0.529 | 0.479 | 0.738 | 0.41 | 0.515 | 0.715 | 0.469 | 0.471
EKLIQYCQSKG [AKR1B1_Y199] | 0.572 | 0.854 | 0.466 | 0.423 | 0.425 | 0.644 | 0.462 | 0.479 | 0.493 | 0.446 | 0.573 | 0.487 | 0.448 | 0.52 | 0.563 | 0.44
ALETLYKKAVK [CC2D2A_Y381_E376A] | 0.511 | 0.889 | 0.599 | 0.338 | 0.446 | 0.864 | 0.463 | 0.307 | 0.475 | 0.396 | 0.603 | 0.348 | 0.342 | 0.559 | 0.366 | 0.405
GISDEYHMIRH [GCDH_Y398_V400M] | 0.781 | 0.931 | 0.587 | 0.349 | 0.402 | 0.714 | 0.491 | 0.735 | 4.43 | 0.891 | 0.575 | 0.446 | 0.58 | 1.07 | 0.522 | 7.6
HRFAAYFQQGD [GPI_Y351] | 0.662 | 0.97 | 0.77 | 0.643 | 0.496 | 1.79 | 0.979 | 0.609 | 0.897 | 0.501 | 1.59 | 0.88 | 0.633 | 1.17 | 0.759 | 0.962
